Test results from patent publication US6869925 (Amgen, dated 2005).

Assays:
[1] = molecular target: SLPI binding sites on U937 cells (human monocyte cell line; intact cells, PMA-induced cells or plasma membranes) (human); assay: competition with 125I-SLPI, U937 plasma membranes, competitor at 2750 nM
[2] = molecular target: SLPI binding sites on U937 cells (human monocyte cell line; intact cells, PMA-induced cells or plasma membranes) (human); assay: competition with 125I-SLPI, intact U937 cells, Kd by Cheng-Prusoff
[3] = molecular target: SLPI binding sites on HuT78 cells (human T cell line) (human); assay: competition with 125I-SLPI, intact HuT78 cells, competitor at 2750 nM
[4] = molecular target: SLPI binding sites on U937 cells (human monocyte cell line; intact cells, PMA-induced cells or plasma membranes) (human); assay: competition with 125I-SLPI, U937 plasma membranes, competitor at 8.20 nM
[5] = molecular target: SLPI binding sites on U937 cells (human monocyte cell line; intact cells, PMA-induced cells or plasma membranes) (human); assay: competition with 125I-SLPI, U937 plasma membranes, competitor at 268 nM
[6] = molecular target: SLPI binding sites on U937 cells (human monocyte cell line; intact cells, PMA-induced cells or plasma membranes) (human); assay: competition with 125I-SLPI, intact U937 cells, competitor at 270 nM
[7] = molecular target: SLPI binding sites on U937 cells (human monocyte cell line; intact cells, PMA-induced cells or plasma membranes) (human); assay: competition with 125I-SLPI, U937 plasma membranes, competitor at 2.56 nM
[8] = molecular target: SLPI binding sites on U937 cells (human monocyte cell line; intact cells, PMA-induced cells or plasma membranes) (human); assay: competition with 125I-SLPI, intact U937 cells, competitor at 860 nM
[9] = molecular target: SLPI binding sites on U937 cells (human monocyte cell line; intact cells, PMA-induced cells or plasma membranes) (human); assay: competition with 125I-SLPI, intact U937 cells, competitor at 2750 nM
[10] = molecular target: SLPI binding sites on U937 cells (human monocyte cell line; intact cells, PMA-induced cells or plasma membranes) (human); assay: competition with 125I-SLPI, U937 plasma membranes, competitor at 0.800 nM
[11] = molecular target: SLPI binding sites on U937 cells (human monocyte cell line; intact cells, PMA-induced cells or plasma membranes) (human); assay: competition with 125I-SLPI, intact U937 cells, competitor at 0.024 nM
[12] = molecular target: SLPI binding sites on U937 cells (human monocyte cell line; intact cells, PMA-induced cells or plasma membranes) (human); assay: competition with 125I-SLPI, U937 plasma membranes, competitor at 0 nM
[13] = molecular target: SLPI binding sites on U937 cells (human monocyte cell line; intact cells, PMA-induced cells or plasma membranes) (human); assay: competition with 125I-SLPI, intact U937 cells, competitor at 0.078 nM
[14] = molecular target: SLPI binding sites on U937 cells (human monocyte cell line; intact cells, PMA-induced cells or plasma membranes) (human); assay: competition with 125I-SLPI, intact U937 cells, competitor at 26 nM
[15] = molecular target: SLPI binding sites on U937 cells (human monocyte cell line; intact cells, PMA-induced cells or plasma membranes) (human); assay: competition with 125I-SLPI, intact U937 cells, competitor at 2.6 nM
[16] = molecular target: SLPI binding sites on HuT78 cells (human T cell line) (human); assay: competition with 125I-SLPI, intact HuT78 cells, Kd by Cheng-Prusoff
[17] = molecular target: SLPI binding sites on HuT78 cells (human T cell line) (human); assay: competition with 125I-SLPI, intact HuT78 cells, competitor at 0.80 nM
[18] = molecular target: SLPI binding sites on U937 cells (human monocyte cell line; intact cells, PMA-induced cells or plasma membranes) (human); assay: competition with 125I-SLPI, intact U937 cells, competitor at 0.80 nM
[19] = molecular target: SLPI binding sites on U937 cells (human monocyte cell line; intact cells, PMA-induced cells or plasma membranes) (human); assay: competition with 125I-SLPI, U937 plasma membranes, competitor at 83.9 nM
[20] = molecular target: SLPI binding sites on U937 cells (human monocyte cell line; intact cells, PMA-induced cells or plasma membranes) (human); assay: competition with 125I-SLPI, U937 plasma membranes, Kd by Cheng-Prusoff
[21] = molecular target: SLPI binding sites on U937 cells (human monocyte cell line; intact cells, PMA-induced cells or plasma membranes) (human); assay: competition with 125I-SLPI, intact U937 cells, competitor at 8.2 nM
[22] = molecular target: SLPI binding sites on HuT78 cells (human T cell line) (human); assay: competition with 125I-SLPI, intact HuT78 cells, competitor at 84 nM
[23] = molecular target: SLPI binding sites on U937 cells (human monocyte cell line; intact cells, PMA-induced cells or plasma membranes) (human); assay: competition with 125I-SLPI, intact U937 cells, competitor at 84 nM
[24] = molecular target: SLPI binding sites on U937 cells (human monocyte cell line; intact cells, PMA-induced cells or plasma membranes) (human); assay: competition with 125I-SLPI, intact U937 cells, competitor at 0.25 nM
[25] = molecular target: SLPI binding sites on HuT78 cells (human T cell line) (human); assay: competition with 125I-SLPI, intact HuT78 cells, competitor at 0 nM
[26] = molecular target: SLPI binding sites on HuT78 cells (human T cell line) (human); assay: competition with 125I-SLPI, intact HuT78 cells, competitor at 2.6 nM
[27] = molecular target: SLPI binding sites on U937 cells (human monocyte cell line; intact cells, PMA-induced cells or plasma membranes) (human); assay: competition with 125I-SLPI, intact U937 cells, competitor at 0 nM
[28] = molecular target: SLPI binding sites on HuT78 cells (human T cell line) (human); assay: competition with 125I-SLPI, intact HuT78 cells, competitor at 8.2 nM
[29] = molecular target: SLPI binding sites on U937 cells (human monocyte cell line; intact cells, PMA-induced cells or plasma membranes) (human); assay: competition with 125I-SLPI, U937 plasma membranes, competitor at 2750 nM (second GLY72 row)
[30] = molecular target: SLPI binding sites on U937 cells (human monocyte cell line; intact cells, PMA-induced cells or plasma membranes) (human); assay: competition with 125I-SLPI, U937 plasma membranes, competitor at 8.20 nM (second GLY72 row)
[31] = molecular target: SLPI binding sites on U937 cells (human monocyte cell line; intact cells, PMA-induced cells or plasma membranes) (human); assay: competition with 125I-SLPI, U937 plasma membranes, competitor at 268 nM (second GLY72 row)
[32] = molecular target: SLPI binding sites on U937 cells (human monocyte cell line; intact cells, PMA-induced cells or plasma membranes) (human); assay: competition with 125I-SLPI, U937 plasma membranes, competitor at 83.9 nM (second GLY72 row)
[33] = molecular target: SLPI binding sites on U937 cells (human monocyte cell line; intact cells, PMA-induced cells or plasma membranes) (human); assay: competition with 125I-SLPI, U937 plasma membranes, competitor at 0.800 nM (second GLY72 row)
[34] = molecular target: SLPI binding sites on U937 cells (human monocyte cell line; intact cells, PMA-induced cells or plasma membranes) (human); assay: competition with 125I-SLPI, U937 plasma membranes, competitor at 0 nM (second GLY72 row)
[35] = molecular target: SLPI binding sites on U937 cells (human monocyte cell line; intact cells, PMA-induced cells or plasma membranes) (human); assay: competition with 125I-SLPI, U937 plasma membranes, competitor at 2.56 nM (second GLY72 row)

Chain of SLPI mutein Lys 72 (P03973 other isoform, or with tags, fused parts or gaps mutant): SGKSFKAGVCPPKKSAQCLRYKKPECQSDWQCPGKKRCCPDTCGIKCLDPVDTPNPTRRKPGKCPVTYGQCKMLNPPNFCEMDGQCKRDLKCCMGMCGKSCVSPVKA
Chain of SLPI mutein Gly 72 (P03973 other isoform, or with tags, fused parts or gaps mutant): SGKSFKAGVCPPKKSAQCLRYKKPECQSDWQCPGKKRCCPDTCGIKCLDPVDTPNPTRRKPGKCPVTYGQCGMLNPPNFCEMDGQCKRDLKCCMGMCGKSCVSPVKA
Chain of alpha-1 protease inhibitor (P01009 25-418 limits assumed): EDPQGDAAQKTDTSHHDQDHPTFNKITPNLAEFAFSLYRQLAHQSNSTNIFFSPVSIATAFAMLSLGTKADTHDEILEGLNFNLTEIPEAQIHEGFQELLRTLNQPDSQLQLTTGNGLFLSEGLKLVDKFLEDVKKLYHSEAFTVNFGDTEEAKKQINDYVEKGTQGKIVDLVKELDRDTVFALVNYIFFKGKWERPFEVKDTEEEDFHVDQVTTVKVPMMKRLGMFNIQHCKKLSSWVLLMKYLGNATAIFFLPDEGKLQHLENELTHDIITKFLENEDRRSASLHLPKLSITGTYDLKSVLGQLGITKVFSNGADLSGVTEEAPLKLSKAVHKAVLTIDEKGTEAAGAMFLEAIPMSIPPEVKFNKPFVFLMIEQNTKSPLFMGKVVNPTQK

Substance | CPM *SLPI BOUND [1] | Kd [2] | % *SLPI BOUND [3] | CPM *SLPI BOUND [4] | CPM *SLPI BOUND [5] | % *SLPI BOUND [6] | CPM *SLPI BOUND [7] | % *SLPI BOUND [8] | % *SLPI BOUND [9] | CPM *SLPI BOUND [10] | % *SLPI BOUND [11] | CPM *SLPI BOUND [12] | % *SLPI BOUND [13] | % *SLPI BOUND [14] | % *SLPI BOUND [15] | Kd [16] | % *SLPI BOUND [17] | % *SLPI BOUND [18] | CPM *SLPI BOUND [19] | Kd [20] | further results
SLPI mutein Lys 72 (from UniProt P03973 26-132) | 5010 cpm | 2.5 nM | 34% | 7620 cpm | 3240 cpm | 6% | 12200 cpm | 5% | 4% | 14200 cpm | 116% | 18700 cpm | 113% | 21% | 71% | 200 nM | 105% | 86% | 3500 cpm | 5 nM | % *SLPI BOUND [21]: 39%; % *SLPI BOUND [22]: 86%; % *SLPI BOUND [23]: 10%; % *SLPI BOUND [24]: 103%; % *SLPI BOUND [25]: 100%; % *SLPI BOUND [26]: 118%; % *SLPI BOUND [27]: 117%; % *SLPI BOUND [28]: 116%
lysozyme (enzyme) | 15900 cpm | – | – | 15000 cpm | 14900 cpm | – | 14700 cpm | – | – | 15200 cpm | – | 18700 cpm | – | – | – | – | – | – | 15500 cpm | – | –
SLPI mutein Gly 72 (from UniProt P03973 26-132) | 1780 cpm | 400 nM | 28% | 7210 cpm | 2840 cpm | 75% | 12000 cpm | 53% | 28% | 14700 cpm | 116% | 18700 cpm | 118% | 112% | 115% | 200 nM | 108% | 116% | 3710 cpm | 5 nM | CPM *SLPI BOUND [29]: 1430 cpm; CPM *SLPI BOUND [30]: 7300 cpm; % *SLPI BOUND [21]: 117%; % *SLPI BOUND [22]: 110%; CPM *SLPI BOUND [31]: 2530 cpm; % *SLPI BOUND [23]: 101%; % *SLPI BOUND [24]: 120%; % *SLPI BOUND [25]: 100%; CPM *SLPI BOUND [32]: 3940 cpm; % *SLPI BOUND [26]: 105%; % *SLPI BOUND [27]: 131%; CPM *SLPI BOUND [33]: 14000 cpm; % *SLPI BOUND [28]: 85%; CPM *SLPI BOUND [34]: 18700 cpm; CPM *SLPI BOUND [35]: 11300 cpm
bFGF (from UniProt P09038 143-288) (ligand) | 14700 cpm | – | – | 14500 cpm | 14400 cpm | – | 13500 cpm | – | – | 14000 cpm | – | 18700 cpm | – | – | – | – | – | – | 15000 cpm | – | –
alpha-1 protease inhibitor (from UniProt P01009 25-418) | – | – | – | – | – | – | – | – | – | – | – | – | – | – | – | – | – | – | – | 1000 nM | –
